The target in this experiment is T1, Human TROP2蛋白 (human, UniProt P09758 27-274, limits assumed).
T1 construct: also called 人TROP2
T1 sequence (looked up): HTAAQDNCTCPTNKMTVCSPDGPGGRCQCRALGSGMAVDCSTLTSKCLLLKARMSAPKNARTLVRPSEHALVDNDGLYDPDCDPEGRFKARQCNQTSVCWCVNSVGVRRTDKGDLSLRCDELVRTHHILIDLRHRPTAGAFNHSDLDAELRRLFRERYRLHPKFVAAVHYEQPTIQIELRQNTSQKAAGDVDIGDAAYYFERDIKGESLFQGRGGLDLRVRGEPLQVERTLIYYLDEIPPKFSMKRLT
Description: ELISA, TROP2 protein incubated with antibody dilutions, goat anti-human IgG (H+L) secondary antibody. Background: ELISA stands for enzyme-linked immunosorbent assay.

Results on one molecule are retold here after patent CN114652851A (STONE BIOPHARMACEUTICAL CO LTD, dated 2022).

B1: SY02人源化抗体 (人源化抗TROP2抗体SY02) (antibody, human IgG1, kappa, V domains shown)
VH: QVQLVQSGAEVKKPGSSVKVSCKASGYTFTDYSINWVRQAPGQGLEWMGVISTYYGDASYNQKFKGRVTITADESTSTAYMELSSLRSEDTAVYYCARYGDGYNQFDYWGQGTLVTVSS
VL: DIQMTQSPSSLSASVGDRVTITCRVSESVDSYGNNFMHWYQQKPGKAPKLLIYRASNLESGVPSRFSGSGSGTDFTFTISSLQPEDIATYYCQQSYEDPYTFGGGTKLEIKR
notes: also called 裸抗SY02
On to B1, for which the binding result was “binds”.
